Test results: publication PMC5934625, “A structurally conserved motif in γ-herpesvirus uracil-DNA glycosylases elicits duplex nucleotide-flipping”

Target: T1, kUNG (kUNGΔ18), uracil-DNA glycosylase (Kaposi's sarcoma-associated herpesvirus …, UniProt F5HFA1 19-255)
T1 sequence: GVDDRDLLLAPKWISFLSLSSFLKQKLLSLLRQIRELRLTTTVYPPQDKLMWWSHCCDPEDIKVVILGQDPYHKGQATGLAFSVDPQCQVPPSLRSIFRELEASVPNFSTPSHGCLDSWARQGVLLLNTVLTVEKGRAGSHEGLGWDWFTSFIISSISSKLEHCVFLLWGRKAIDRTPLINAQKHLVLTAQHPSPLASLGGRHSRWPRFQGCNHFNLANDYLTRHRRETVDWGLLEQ
Test: X-ray crystallography; product complex after uracil cleavage; 100 mM Mg acetate in crystallisation; Crystallisation: protein:DNA 1:1.2, annealing buffer 20 mM Tris-HCl pH 7.4, 100 mM NaCl, 20 mM MgCl2; crystals in 100 mM sodium acetate pH 4.5, 100 mM Mg acetate, 8% PEG 8000, 16 °C. Km/Vmax of mutants (Table 3) are turnover only and left out.
Settings: protein: recombinant; tags: N-terminal 6xHis-TEV cleaved; Ser-Ala-Ser remains; label: 5'-FAM on strand 1; 5' overhang 1 nt (strand 1); U:A pair

B1: 5'FAM-idu_2 duplex (dsDNA)
DNA 1: AAAGATAACATT
DNA 2: AATGTUATCTT
modifications: dU at position 6 of strand 2; converted to abasic site (beta-anomer deoxyribose) in the product complex, no density for uracil
binding result: binds
